The record followed here is US11499162B2, “Plants having increased tolerance to herbicides” (BASF SE, priority 2016, dated 2022).

Changes are numbered by the printed parent chain. In names and notes the source's numbering stands.

B1: D250N: mutated TriA variant of SEQ ID NO: 2 (protein)
chain: MQTLSIQHGTLVTMDQYRRVLGDSWVHVQDGRIVALGVHAESVPPPADRVIDARGKVVLPGFINAHTHVNQILLRGGPSHGRQLYDWLFNVLYPGQKAMRPEDVAVAVRLYCAEAVRSGITTINDNADSAIYPGNIEAAMAVYGEVGVRVVYARMFFDRMDGRIQGYVDALKARSPQVELCSIMEETAVAKDRITALSDQYHGTAGGRISVWPAPAITPAVTVEGMRWAQAFARDRAVMWTLHMAESDHNERLHWMSPAEYMECYGLLDERLQVAHCVYFDRKDVRLLHRHNVKVASQVVSNAYLGSGVAPVPEMVERGMAVGIGTDDGNCNDSVNMIGDMKFMAHIHRAVHRDADVLTPEKILEMATIDGARSLGMDHEIGSIETGKRADLILLDLRHPQTTPHHHLAATIVFQAYGNEVDTVLIDGNVVMENRRLSFLPPERELAFLEEAQSRATAILQRANMVANPAWRSL
modifications: Pseudomonas
B2: N70V: mutated TriA variant of SEQ ID NO: 2 (protein)
chain: B1 chain with N70V, N250D
modifications: Pseudomonas
B3: E251D: mutated TriA variant of SEQ ID NO: 2 (protein)
chain: B1 chain with N250D, E251D
modifications: Pseudomonas

The format of this data set is biochemical. The conditions noted are these: pH 7.2. The gist of the method: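 TriA variants, N-His-tagged, were expressed in E. coli BL21(DE3) Gold with groEL/groES chaperones and purified by Ni-IDA affinity. Enzyme in 25 mM sodium phosphate pH 7.2 was incubated with azine substrates at 1 nM to 10 nM, 30° C. Products were identified by UPLC-HR-MS.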
As to B1, the “Degradation in % of 6-cyclopentyl-N4-(2,3,4,5,6-pentafluorophenyl)-1,3,5-triazine-2,4-diamine” value was 1% and the “Degradation in % of Melamine” value turned out to be 3%.
The corresponding values for B2 are 4% and 0%.
Turning to B3, the “Degradation in % of 6-cyclopentyl-N4-(2,3,4,5,6-pentafluorophenyl)-1,3,5-triazine-2,4-diamine” value is 35% and the “Degradation in % of Melamine” value is listed as 100%.
